PMC5787919, “A feedback regulatory model for RifQ-mediated repression of rifamycin export in Amycolatopsis mediterranei” (Microbial Cell Factories, 2018)

Molecular target: the molecule itself
Assay: SEC; gel filtration on Superdex 75, calibrated with the Low Molecular Weight kit (aprotinin 6.5 KD, ribonuclease A 14 KD, ovalbumin 44 KD; Blue Dextran 2000 for the void); molecular weight calculated from the retention time

B1: RifQ, TetR-family transcriptional regulator of Amycolatopsis mediterranei S699 (natural protein, UniProt O52558 1-242, looked up)
chain: MGKRASQPRESVWLSPRPARKHRAGESELDREKIVATAVRVLDAEGDAKFSMRLLAEELNVTPMSVYWYVANKDDLLELALDAVAGEIELPSLDDGNDWREDLRALARAWRRTMVAHPWAIRCYGEYLNIGPSSLRFTECAQAVMACSPLPLKDRSAALNVVFQYVYGFTATESRWLEHLAETGRTAEEFAAEVTGSMAAMSSTLEQGGLLERDGDQSMEQLRDRDFDRGLNWLFTGMVAGG
notes: RifQ, TetR-family regulator encoded in the rifamycin biosynthetic (rif) cluster of Amycolatopsis mediterranei S699; Cloning between NdeI and XhoI of pET22b would usually give a C-terminal His6 tag (surmised); also called His-tagged RifQ; recombinant RifQ; source: E. coli BL21(DE3), pET22b-RifQ, purified (Ni-NTA gravity column)
stoichiometry N: 2
